Experimental findings from doi:10.1101/2025.11.04.686334 (2025) are described below.

Holding throughout (experiment): BLI
(In general: In BLI a coated tip is dipped into the sample, and binding shifts an interference pattern.)

For test [1], the target named is HA220-4.
In test [2] the target is HA220-M4T.
Test [3] has as its target HA220-1 (human, UniProt Q9NZ52 16-146).

B1: S1V2-58 mAb (antibody, V domains shown)
VH: QVQLQESGPGLVKPSETLSLTCTVSGGSLSIYYWSWVRQSPGKGLEWIGYISNSGSPTYHPSLKSRVTISLDTSKSQFSLKLTSVTAADTALYFCARGVLEQLAPDFDSYYYGMNVWGQGTTVTVSG
VL: DIQMTQSPSSVSASLGDRVTLTCRASQPIRSYLNWYQHKPGLAPKLLVYAVSNLQSGVPSRFSGSGSGTDFTLTVSSLQPEDFATYYCQQSYSTPYTFGQGTRLEIK
In test [1], B1 came in with a Kd of 178 nM. In test [2], this molecule yielded a Kd of 10.7 nM and a koff of 0.00043 s⁻¹.

B2: FluA-20 mAb (antibody, V domains shown)
VH: QVQLEESGPGLVKPSETLSLTCSVSGVSVTSDIYYWTWIRQPPGKGLEWIGYIFYNGDTNYNPSLKSRVTMSIDTSKNEFSLRLTSVTAADTAVYFCARGTEDLGYCSSGSCPNHWGQGTLVTVSS
VL: DIVMTQSPSSLSASIGDRVTITCRPSQNIRSFLNWFQHKPGKAPKLLIYAASNLQSGVPSRFSGSGSGTEFTLTIRSLQPEDFATYYCQQSYNTPPTFGQGTKVEIK
On to B2, for which the dissociation constant (Kd) in test [3] was over 12000 nM; in test [1] it was 110 nM; in test [2] it was 0.253 nM.

B3: D2 H1-1/H3-1 mAb (antibody, V domains shown)
VH: QVQLVQSGGGLVRPGGSLRLSCAASGFTFSSAWMTWVRQAPGKGLEWVANIKEDGSEKYYVDSVKGRFSISRDNAKNSLYLQISSLRAEDTAVYYCARRFVERLWGQSKPYDAVDIWGQGTMVTVSG
VL: DIQMTQSPSSLSASVGDRVTITCRASQSISNYLNWYQQKPGKAPKLLIYVASNLQSGVPSRFSGSGSGTDFALTISSLQPEDFASYYCQQSYSPVTTFGGGTKVEIK
The molecule B3 showed a Kd in test [1] of 65 nM. Further, in test [2], the dissociation constant (Kd) worked out at 2.55 nM and the koff was 0.00017 s⁻¹.

As a reminder, the Kd is the free concentration of one partner at which half of the binding sites on the other are occupied at equilibrium, for simple one-to-one binding. A low value points to tighter binding. As a reminder, the koff is a measure of how fast the partners let go of each other. High values mean fast dissociation, low ones slow dissociation.
